T1: BCMA (TNFRSF17) (human, UniProt Q02223 1-184, limits assumed)
T1 construct: Member of a commercial human plasma membrane protein array
T1 sequence (looked up): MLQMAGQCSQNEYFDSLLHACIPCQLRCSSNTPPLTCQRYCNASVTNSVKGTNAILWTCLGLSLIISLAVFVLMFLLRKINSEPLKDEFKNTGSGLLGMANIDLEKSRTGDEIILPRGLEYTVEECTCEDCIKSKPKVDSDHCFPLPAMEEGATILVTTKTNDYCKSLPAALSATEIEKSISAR

T2: CD2 (human, UniProt P06729 25-351)
T2 construct: whole, on cells; also called T-cell surface antigen T11/Leu-5/CD2
T2 sequence (looked up): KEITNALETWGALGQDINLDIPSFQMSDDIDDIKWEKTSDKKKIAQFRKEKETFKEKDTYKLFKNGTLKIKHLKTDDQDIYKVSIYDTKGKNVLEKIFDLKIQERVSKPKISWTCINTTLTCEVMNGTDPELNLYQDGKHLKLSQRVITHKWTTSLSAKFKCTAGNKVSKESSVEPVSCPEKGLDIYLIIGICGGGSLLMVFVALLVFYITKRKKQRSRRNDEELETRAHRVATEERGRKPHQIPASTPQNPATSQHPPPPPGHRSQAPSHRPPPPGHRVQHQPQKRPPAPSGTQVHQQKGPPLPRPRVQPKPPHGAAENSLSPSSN

B1: anti-human BCMA single chain antibody variable fragment (scFv) (PI61) (scFv)
scFv: QVQLQESGGGVVQPGRSLRLSCAASGFTFSSYGMHWVRQAPGKGLEWVAVISYDGSNKYYADSVKGRFTISRDNSKNTLYLQMNSLRAEDTAVYYCGGSGYALHDDYYGLDVWGQGTLVTVSSGGGGSGGGGSGGGGSQSALTQPASVSGSPGQSITISCTGTSSDVGGYNYVSWYQQHPGKAPKLMIYDVSNRPSGVSNRFSGSKSGNTASLTISGLQAEDEADYYCSSYTSSSTLYVFGSGTKVTVL
notes: also called PI61 scFv
B2: Construct 1 (bispecific antibody, human IgG1, kappa)
light: DVVMTQSPPSLLVTLGQPASISCRSSQSLLHSSGNTYLNWLLQRPGQSPQPLIYLVSKLESGVPDRFSGSGSGTDFTLKISGVEAEDVGVYYCMQFTHYPYTFGQGTKLEIKRTVAAPSVFIFPPSDEQLKSGTASVVCLLNNFYPREAKVQWKVDNALQSGNSQESVTEQDSKDSTYSLSSTLTLSKADYEKHKVYACEVTHQGLSSPVTKSFNRGEC
heavy: not shown
notes: Anti-CD3 scFv fused to an anti-CD2 Fab, further fused to a wild type Fc; also called F1
B3: Construct 7 (bispecific antibody)
light: B2 light
heavy: not shown
notes: Anti-CD3 scFv fused to an Fc, further fused to an anti-CD2 Fab; Stated ligand valency of 2; also called F7
B4: Construct 15 (bispecific antibody, human IgG1, kappa)
light: B2 light
heavy 1: QVQLVQSGAEVQRPGASVKVSCKASGYIFTEYYMYWVRQAPGQGLELVGRIDPEDGSIDYVEKFKKKVTLTADTSSSTAYMELSSLTSDDTAVYYCARGKFNYRFAYWGQGTLVTVSSASTKGPSVFPLAPSSKSTSGGTAALGCLVKDYFPEPVTVSWNSGALTSGVHTFPAVLQSSGLYSLSSVVTVPSSSLGTQTYICNVNHKPSNTKVDKRVEPKSCDKTHTCPPCPAPELLGGPSVFLFPPKPKDTLMISRTPEVTCVVVDVSHEDPEVKFNWYVDGVEVHNAKTKPREEQYNSTYRVVSVLTVLHQDWLNGKEYKCKVSNKALPAPIEKTISKAKGQPREPQVCTLPPSREEMTKNQVSLSCAVKGFYPSDIAVEWESNGQPENNYKTTPPVLDSDGSFFLVSKLTVDKSRWQQGNVFSCSVMHEALHNRFTQKSLSLSPGK
heavy 2: not shown
notes: Anti-CD2 Fab-Fc paired with anti-CD3 scFv-Fc-(G4S)-COMPcc; also called F15
B5: Construct 12 (bispecific antibody, human IgG1, kappa)
light: B2 light
heavy 1: B4 heavy 1
heavy 2: not shown
notes: Anti-CD2 Fab-Fc paired with anti-CD3 scFv-Fc-(G4S)3-Matrilin1; also called F12
B6: Construct 5 (bispecific antibody)
light: B2 light
heavy: not shown
notes: Anti-CD2 Fab fused to an anti-CD3 scFv, further fused to an Fc; Stated ligand valency of 2; also called F5
B7: Construct 3 (bispecific antibody, human IgG1, kappa)
light: B2 light
heavy: not shown
notes: Anti-CD2 Fab fused to a wild type Fc, further fused to an anti-CD3 scFv; Stated ligand valency of 2; also called F3

How the values were obtained:
BCMA (TNFRSF17) = molecular target: T1, BCMA (TNFRSF17); assay: commercial human plasma membrane protein array
CD2 = molecular target: T2, CD2; assay: legend of FIG. 55 (CAR transduction of donor T cells by costimulatory molecule targeted); no direct binding assay

Binder	binding result (BCMA (TNFRSF17))	binding result (CD2)
B1	binds	–
B2	–	binds
B3	–	binds
B4	–	binds
B5	–	binds
B6	–	binds
B7	–	binds

Reference: US20230256017A1 (published 2023)
